Source: paper PMC4930699 (Cancer research, 2016)

Biological target: the molecule itself
Test: cross-linking

B1: Flag-PKM2 K305R (enzyme)
chain: not shown
  binding result: binds
